# “Also recorded” adds a separate entry of the source.
# Legend:
# [1] = target: ZIKV ns2B-ns3 protease (Zika virus, UniProt A0A024B7W1, C1582S/C1645S/R1467A/R1531G); type: biochemical
# [2] = target: EEEV nsP2 cysteine protease (Eastern equine encephalitis virus, UniProt Q4QXJ8); type: biochemical
# [3] = target: T1, VEEV nsP2 cysteine protease (Venezuelan equine encephalitis virus, UniProt P27282)
# [4] = target: WEEV nsP2 cysteine protease (Western equine encephalitis virus, UniProt P13896)
# [5] = target: T1, VEEV nsP2 cysteine protease; conditions: pH 7
# [6] = target: CHIKV nsP2 cysteine protease (Chikungunya virus, UniProt Q8JUX6, A1139V/C1177Y/S1178N)
# [7] = tested on: VEEV; type: cell-based, Venezuelan equine encephalitis virus (VEEV)
# [8] = target: VEEV nsP2 protease cleavage of TRIM14 (Venezuelan equine encephalitis virus, UniProt P27282); type: cell-based
# VEEV nsP2 protease cleavage of TRIM14, sequence (P27282 536-1329 limits assumed): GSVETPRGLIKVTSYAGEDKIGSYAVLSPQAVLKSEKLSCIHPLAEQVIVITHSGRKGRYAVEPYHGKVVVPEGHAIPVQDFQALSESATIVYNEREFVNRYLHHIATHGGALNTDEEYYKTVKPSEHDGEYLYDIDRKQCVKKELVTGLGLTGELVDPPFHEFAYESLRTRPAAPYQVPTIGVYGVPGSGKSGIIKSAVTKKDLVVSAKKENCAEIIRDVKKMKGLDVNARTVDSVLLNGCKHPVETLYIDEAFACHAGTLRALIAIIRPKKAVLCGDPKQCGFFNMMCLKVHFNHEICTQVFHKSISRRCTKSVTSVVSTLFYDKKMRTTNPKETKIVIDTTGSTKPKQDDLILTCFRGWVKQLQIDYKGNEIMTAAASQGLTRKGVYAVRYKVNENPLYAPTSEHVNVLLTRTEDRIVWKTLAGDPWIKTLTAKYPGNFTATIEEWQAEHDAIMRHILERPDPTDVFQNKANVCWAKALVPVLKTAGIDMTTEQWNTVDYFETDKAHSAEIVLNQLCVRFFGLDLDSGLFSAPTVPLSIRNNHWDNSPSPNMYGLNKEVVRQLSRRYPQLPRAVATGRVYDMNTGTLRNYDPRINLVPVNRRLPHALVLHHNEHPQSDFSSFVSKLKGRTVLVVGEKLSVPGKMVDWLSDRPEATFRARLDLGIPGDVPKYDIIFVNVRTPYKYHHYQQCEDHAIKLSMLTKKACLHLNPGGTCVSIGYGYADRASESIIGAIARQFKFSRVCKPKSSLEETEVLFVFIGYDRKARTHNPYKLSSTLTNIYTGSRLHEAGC
compound,measurement,setting,value
"CFP-SFRP2-YFP: Uncleavable control CFP-YFP substrate, 34 residues MLQGPGSLLLLFLASHCCLGSARGLFLFGQPDFS ({CFP}-MLQGPGSLLLLFLASHCCLGSARGLFLFGQPDFS-{YFP}; cysteine pairing not given here)",Proteases cutting the substrate: ZIKV ns2B-ns3 protease,[1],"Control, not cleaved by ZIKV"
"CFP-SFRP1-YFP: CFP-YFP substrate, 25-residue human SFRP1 sequence MGIGRSEGGRR↓GAALGVLLALGAAL ({CFP}-MGIGRSEGGRRGAALGVLLALGAAL-{YFP})",Proteases cutting the substrate: ZIKV ns2B-ns3 protease,[1],cleavage; also recorded: ZIKV ns2B-ns3 protease
"CFP-FOXG1-YFP: CFP-YFP substrate, 21-residue human FOXG1 sequence RSTTSRAKLAFKR↓GARLTSTG ({CFP}-RSTTSRAKLAFKRGARLTSTG-{YFP})",Proteases cutting the substrate: ZIKV ns2B-ns3 protease,[1],cleavage; also recorded: ZIKV ns2B-ns3 protease
"CFP-SFRP4-YFP: Uncleavable control CFP-YFP substrate, 34 residues MFLSILVALCLWLHLALGVRGAPCEAVRIPMCRH ({CFP}-MFLSILVALCLWLHLALGVRGAPCEAVRIPMCRH-{YFP}; cysteine pairing not given here)",Proteases cutting the substrate: ZIKV ns2B-ns3 protease,[1],"Control, not cleaved by ZIKV"
"CFP-TRIM14-YFP (SEQ ID NO: 4): CFP-YFP FRET substrate, 25 residues of human TRIM14 DCFATGRHYWEVDVQEAGA↓GWWVGA (DCFATGRHYWEVDVQEAGAGWWVGA)",Extent of cleavage of TRIM14 substrate by EEEV nsP2 protease (SDS-PAGE),[2],did not show significant amounts of cleavage
same,Proteases cutting the substrate: VEEV nsP2 cysteine protease,[3],VEEV nsP2 cysteine protease
same,Extent of cleavage of TRIM14 substrate by WEEV nsP2 protease (SDS-PAGE),[4],did not show significant amounts of cleavage
same,Km,[5],21 ± 2 µM
same,Vmax,[5],0.056 ± 0.002 U/mg
same,Extent of cleavage of TRIM14 substrate by CHIKV nsP2 protease (SDS-PAGE),[6],did not show evidence of significant cleavage
"CFP-NT5M-YFP: CFP-YFP substrate, 34-residue human NT5M sequence MIRLGGWCARRLCSAAVPAGRR↓GAAGGLGLAGGR ({CFP}-MIRLGGWCARRLCSAAVPAGRRGAAGGLGLAGGR-{YFP}; cysteine pairing not given here)",Proteases cutting the substrate: ZIKV ns2B-ns3 protease,[1],cleavage; also recorded: ZIKV ns2B-ns3 protease
CCCNC(=O)[C@H]1O[C@@H]1C(=O)N[C@H](C(=O)N1CCC[C@H]1C(=O)OC)[C@@H](C)CC [CA074 methyl ester],VEEV titers / viral replication (plaque assays),[7],halted viral replication; also recorded: decreased significantly
same,TRIM14 cleavage product (CP) in infected cell lysates (immunoblot),[8],halted; also recorded: absent; also recorded: no longer present

# — patent US12607633B2 (priority 2016, dated 2026)
